The source of these data is paper PMC11707362, “Endothelial-secreted Endocan activates PDGFRA and regulates vascularity and spatial phenotype in glioblastoma” (Nature Communications, 2025).

Test [1] concerns the target T1, Fc-tagged recombinant PDGFRA monomeric fragment (human, UniProt P16234 24-528).
T1 chain: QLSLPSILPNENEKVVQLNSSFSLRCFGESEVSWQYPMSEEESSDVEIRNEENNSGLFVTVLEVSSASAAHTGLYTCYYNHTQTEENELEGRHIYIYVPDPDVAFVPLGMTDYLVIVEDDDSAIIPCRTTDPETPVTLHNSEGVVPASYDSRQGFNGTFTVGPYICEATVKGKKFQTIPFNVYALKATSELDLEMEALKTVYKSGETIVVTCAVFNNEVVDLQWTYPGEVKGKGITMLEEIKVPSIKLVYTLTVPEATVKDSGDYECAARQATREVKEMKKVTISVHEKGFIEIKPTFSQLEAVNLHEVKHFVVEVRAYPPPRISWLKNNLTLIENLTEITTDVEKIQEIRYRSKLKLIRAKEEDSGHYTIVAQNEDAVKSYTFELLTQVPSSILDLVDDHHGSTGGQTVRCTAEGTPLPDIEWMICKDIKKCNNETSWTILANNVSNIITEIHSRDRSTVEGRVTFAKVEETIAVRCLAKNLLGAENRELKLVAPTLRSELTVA
The test is described as follows: SPR. (In SPR one partner is held on a chip, and binding of the other changes the refractive index at the surface.)

For test [2], the target named is T2, Fc-tagged recombinant PDGFRA monomeric fragment (human, UniProt P16234 24-528).
T2 construct: PDGFRA (platelet-derived growth factor receptor alpha), human, recombinant 'monomeric fragment'; also called Fc-PDGFRA monomeric fragment; Fc-tagged rPDGFRA; source: bought: R&D
As to the kind of experiment: SPR; Biacore T200, CM5 chip, amine coupling, hPDGFRA immobilised, Endocan as analyte; HBS-EP (0.15 M NaCl, 3 mM EDTA, 0.005% P20, 0.01 M Hepes pH 7.4), 30 ul/min; KD = koff/kon at five concentrations; repeated with 1 and 10 ug/ml heparin without effect. As to conditions: both partners purified.

B1: recombinant His-tagged Endocan (ligand, UniProt Q9NQ30 20-184, looked up)
chain: WSNNYAVDCPQHCDSSECKSSPRCKRTVLDDCGCCRVCAAGRGETCYRTVSGMDGMKCGPGLRCQPSNGEDPFGEEFGICKDCPYGTFGMDCRETCNCQSGICDRGTGKCLKFPFFQYSVTKSSNRFVSLTEHDMASGDGNIVREEVVKENAAGSPVMRKWLNPR
notes: Endocan (ESM1 gene product), recombinant; the introduction describes the mature polypeptide as 165 amino acids; also called rEndocan; His6-Endocan; source: bought: R&D
As a reminder, the koff is the rate constant with which the complex falls apart. As usually defined, the Kd is a measure of binding affinity in units of concentration. Turning to B1, in test [1], the koff was 0.045 s⁻¹. Further, the Kd in test [2] was 345 nM.
